{
  "source": "patent US20170298139A1",
  "about": "(OPI VI IP HOLDCO, published 2017)",
  "binders": {"B1": {"name": "SBT-040-G2-ATAC11 (antibody, human IgG2, kappa)", "heavy": "not shown", "light": "DIQMTQSPSSVSASVGDRVTITCRASQGIYSWLAWYQQKPGKAPNLLIYTASTLQSGVPSRFSGSGSGTDFTLTISSLQPEDFATYYCQQANIFPLTFGGGTKVEIKRTVAAPSVFIFPPSDEQLKSGTASVVCLLNNFYPREAKVQWKVDNALQSGNSQESVTEQDSKDSTYSLSSTLTLSKADYEKHKVYACEVTHQGLSSPVTKSFNRGEC", "modifications": "ATAC11 on reduced cysteines; sites not stated (heavy or light chain); ATAC11 (maleimide-PEG4 linker with immune-stimulatory compound) on reduced cysteines; sites not stated (heavy or light chain); DAR 4.0"}, "B2": {"name": "SBT-040-G2 (antibody, human IgG2, kappa)", "heavy": "not shown", "light": "B1 light", "notes": "also called SBT-040-G2WT"}, "B3": {"name": "SBT-040-G2-ATAC3 (antibody, human IgG2, kappa)", "heavy": "not shown", "light": "B1 light", "modifications": "ATAC3 on lysines; sites not stated (heavy or light chain); ATAC3 (PEG linker with activated ester and immune-stimulatory compound) on lysines; sites not stated (heavy or light chain); DAR 3.3"}, "B4": {"name": "SBT-040-G2-ATAC22 (antibody, human IgG2, kappa)", "heavy": "not shown", "light": "B1 light", "modifications": "ATAC22 on reduced cysteines; sites not stated (heavy or light chain); ATAC22 (maleimidocaproyl-Val-Ala-PAB linker with immune-stimulatory compound) on reduced cysteines; sites not stated (heavy or light chain); DAR 4.1"}, "B5": {"name": "SBT-040-G2-ATAC4 (antibody, human IgG2, kappa)", "heavy": "not shown", "light": "B1 light", "modifications": "ATAC4 on lysines; sites not stated (heavy or light chain); ATAC4 (PEG linker with activated ester and immune-stimulatory compound) on lysines; sites not stated (heavy or light chain); DAR 2.9"}, "B6": {"name": "SBT-040-WT-ATAC11 (antibody, human IgG1, kappa)", "heavy": "not shown", "light": "B1 light", "modifications": "ATAC11 on reduced cysteines; sites not stated (heavy or light chain); ATAC11 (maleimide-PEG4 linker with immune-stimulatory compound) on reduced cysteines; sites not stated (heavy or light chain); DAR 4.5"}, "B7": {"name": "SBT-040-WT antibody (antibody, human IgG1, kappa)", "heavy": "not shown", "light": "B1 light", "notes": "also called SBT-040-G1"}, "B8": {"name": "SBT-040-WT-ATAC4 (antibody, human IgG1, kappa)", "heavy": "not shown", "light": "B1 light", "modifications": "ATAC4 on lysines; sites not stated (heavy or light chain); ATAC4 (PEG linker with activated ester and immune-stimulatory compound) on lysines; sites not stated (heavy or light chain); DAR 4.6", "notes": "also called SBT-040-G1-ATAC4"}, "B9": {"name": "SBT-040-WT-ATAC22 (antibody, human IgG1, kappa)", "heavy": "not shown", "light": "B1 light", "modifications": "ATAC22 on reduced cysteines; sites not stated (heavy or light chain); ATAC22 (maleimidocaproyl-Val-Ala-PAB linker with immune-stimulatory compound) on reduced cysteines; sites not stated (heavy or light chain); DAR 4.6"}, "B10": {"name": "SBT-040-WT-ATAC3 (antibody, human IgG1, kappa)", "heavy": "not shown", "light": "B1 light", "modifications": "ATAC3 on lysines; sites not stated (heavy or light chain); ATAC3 (PEG linker with activated ester and immune-stimulatory compound) on lysines; sites not stated (heavy or light chain); DAR 5.4", "notes": "also called SBT-040-G1-ATAC3"}, "B11": {"name": "SBT-040-AAA-ATAC11 (antibody, human IgG1, kappa)", "heavy": "not shown", "light": "B1 light", "modifications": "ATAC11 on reduced cysteines; sites not stated (heavy or light chain); ATAC11 (maleimide-PEG4 linker with immune-stimulatory compound) on reduced cysteines; sites not stated (heavy or light chain); DAR 2.9"}, "B12": {"name": "SBT-040-AAA-ATAC22 (antibody, human IgG1, kappa)", "heavy": "not shown", "light": "B1 light", "modifications": "ATAC22 on reduced cysteines; sites not stated (heavy or light chain); ATAC22 (maleimidocaproyl-Val-Ala-PAB linker with immune-stimulatory compound) on reduced cysteines; sites not stated (heavy or light chain); DAR 4.1"}, "B13": {"name": "SBT-040-VLPLL-ATAC22 (antibody, human IgG1, kappa)", "heavy": "not shown", "light": "B1 light", "modifications": "ATAC22 on reduced cysteines; sites not stated (heavy or light chain); ATAC22 (maleimidocaproyl-Val-Ala-PAB linker with immune-stimulatory compound) on reduced cysteines; sites not stated (heavy or light chain); DAR 3.9"}, "B14": {"name": "SBT-040-VLPLL-ATAC11 (antibody, human IgG1, kappa)", "heavy": "not shown", "light": "B1 light", "modifications": "ATAC11 on reduced cysteines; sites not stated (heavy or light chain); ATAC11 (maleimide-PEG4 linker with immune-stimulatory compound) on reduced cysteines; sites not stated (heavy or light chain); DAR 2.9"}},
  "data": [
    {"target": "T1, human FcγRI (human, UniProt P12314 16-288, limits assumed)", "T1 construct": "Monomeric FcγR used as analyte in solution; also called CD64", "T1 sequence (P12314 16-288 limits assumed)": "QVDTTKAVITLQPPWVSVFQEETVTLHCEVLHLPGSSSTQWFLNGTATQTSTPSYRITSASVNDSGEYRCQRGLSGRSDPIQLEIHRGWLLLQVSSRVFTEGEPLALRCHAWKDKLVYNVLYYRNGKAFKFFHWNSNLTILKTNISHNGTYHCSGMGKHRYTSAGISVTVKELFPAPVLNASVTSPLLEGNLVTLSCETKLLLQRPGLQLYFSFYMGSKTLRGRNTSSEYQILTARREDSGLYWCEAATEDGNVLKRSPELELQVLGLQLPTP", "assay": "BLI (Octet Red 96), antibody on anti-human Fc sensor, monomeric FcγR as analyte", "method": "Human FcγR interaction analysis was also performed using Octet Red 96 instrument. […] The experiments were comprised of 5 steps: (1) baseline acquisition (60 s); (2) anti-CD40 antibodies or anti-CD40 antibody immune-stimulatory compound conjugates loading onto anti-human Fc biosensor (120 s); (3) second baseline acquisition (60 s); (4) association of interacting protein for kₒₙ measurement (120 s); (5) dissociation of interacting FcγR for koff measurement (300 s). The interacting monomeric FcγR were used at 5-6 concentrations of 3-fold concentration series. Data were analyzed using Octet Data Analysis Software 9.0 (ForteBio) and fitted to the 1:1 binding model. Equilibrium dissociation constants (KD) were calculated by the […].", "values": [
      {"binder": "B1", "binding result": "no binding (tested: 1.2 nM to 1 µM FcγR)"},
      {"binder": "B2", "binding result": "no binding (tested: 1.2 nM to 1 µM FcγR)"},
      {"binder": "B3", "binding result": "no binding (tested: 1.2 nM to 1 µM FcγR)"},
      {"binder": "B4", "binding result": "no binding (tested: 1.2 nM to 1 µM FcγR)"},
      {"binder": "B5", "binding result": "no binding (tested: 1.2 nM to 1 µM FcγR)"}
    ]},
    {"target": "T2, human FcγRIIIB (human, UniProt O75015 17-200)", "T2 construct": "also called CD16b", "T2 sequence (O75015 17-200 limits assumed)": "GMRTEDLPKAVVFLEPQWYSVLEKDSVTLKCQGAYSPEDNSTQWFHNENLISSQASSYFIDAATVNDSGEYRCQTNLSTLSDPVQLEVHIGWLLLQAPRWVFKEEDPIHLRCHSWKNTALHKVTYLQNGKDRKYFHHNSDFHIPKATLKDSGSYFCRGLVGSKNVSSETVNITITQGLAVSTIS", "assay": "BLI (Octet Red 96), FcγR on anti-his tag sensor, antibody as analyte, avidity fit", "method": "For human FcγRIIB/C, FcγRIIIA F158, FcγRIIIA V158 and FcγRIIIB interaction studies, the proteins were immobilized on anti-his tag biosensors and incubated with varying concentration of unconjugated anti-CD40 antibodies or anti-CD40 antibody immune-stimulatory compound conjugates ranging from 0.04 μM to 8 μM. […] The experiment comprised of 5 steps: (1) baseline acquisition (60 s); (2) anti-CD40 antibodies or anti-CD40 antibody immune-stimulatory compound conjugates loading onto […] (120 s); (3) second baseline acquisition (60 s); (4) association of interacting protein for kₒₙ measurement (120 s); (5) dissociation of interacting FcγR for koff measurement (300 s). The interacting anti-CD40 antibodies or anti-CD40 antibody immune-stimulatory compound conjugates were used at 4 concentrations of 2 fold concentration series. Data were analyzed using Octet Data Analysis Software 9.0 (ForteBio) and fitted to the avidity binding model. Equilibrium dissociation constants (KD) were calculated by the […].", "units": {"Kd": "nM"}, "values": [
      {"binder": "B6", "Kd": 5000},
      {"binder": "B7", "Kd": 3600},
      {"binder": "B3", "Kd": 3930},
      {"binder": "B8", "Kd": 3240},
      {"binder": "B9", "Kd": 2710},
      {"binder": "B10", "Kd": 1500},
      {"binder": "B11", "Kd": 3830}
    ]},
    {"target": "T3, Human CD40 ECD monomer (human, UniProt P25942 21-193)", "T3 construct": "extracellular domain; Recombinant monomeric CD40 ECD used as analyte; also called monomeric human CD40; CD40 Extracellular Domain (ECD)", "T3 sequence (P25942 21-193)": "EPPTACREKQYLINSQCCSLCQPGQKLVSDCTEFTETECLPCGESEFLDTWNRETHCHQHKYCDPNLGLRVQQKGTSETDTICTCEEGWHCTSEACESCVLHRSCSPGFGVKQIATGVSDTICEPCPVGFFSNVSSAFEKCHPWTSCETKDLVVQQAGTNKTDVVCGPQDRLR", "assay": "BLI (Octet Red 96), antibody on anti-human Fc sensor, monomeric CD40 ECD as analyte, 1:1 fit", "method": "(§1) Analysis of CD40 ECD interaction was performed using Octet Red 96 instrument (ForteBio). The Octet systems use propriety BLI to analyze biomolecular interaction. […] The experiments were comprised of 5 steps: (1) baseline acquisition (60 s); (2) antibodies and antibody immune-stimulatory compound conjugates loading onto anti-human Fc biosensor (120 s); (3) second baseline acquisition (60 s); (4) association of interacting monomeric CD40 ECD protein for kₒₙ measurement (120 s); (5) Dissociation of interacting monomeric CD40 ECD for koff measurement (360 s). The interacting monomeric CD40 ECD were used at 5-6 concentrations of 3-fold concentration series. Data were analyzed using Octet Data Analysis Sofware 9.0 (ForteBio) and fitted to the 1:1 binding model. Equilibrium dissociation constants (KD) were calculated by the […].", "units": {"Kd": "nM"}, "values": [
      {"binder": "B1", "Kd": 7.4},
      {"binder": "B2", "Kd": 7.7},
      {"binder": "B3", "Kd": 7.3},
      {"binder": "B8", "Kd": 9.3},
      {"binder": "B9", "Kd": 8},
      {"binder": "B10", "Kd": 9},
      {"binder": "B4", "Kd": 7.2},
      {"binder": "B5", "Kd": 8.7},
      {"binder": "B12", "Kd": 5},
      {"binder": "B13", "Kd": 7.5},
      {"binder": "B14", "Kd": 7.6}
    ]},
    {"target": "T4, Rhesus CD40 ECD monomer (rhesus, UniProt F6SNI1 21-193)", "T4 construct": "Recombinant monomeric CD40 ECD used as analyte; also called monomeric rhesus CD40", "T4 sequence (F6SNI1 entry or part of it limits assumed)": "as the sequence (P25942 21-193) above, with G43S, H56R, W89L, T92M, A95S, L101P, S106L, H142R, L172Q counted along it", "assay": "BLI (Octet Red 96), antibody on anti-human Fc sensor, monomeric CD40 ECD as analyte, 1:1 fit", "method": "as §1", "units": {"Kd": "nM"}, "values": [
      {"binder": "B6", "Kd": 13.5},
      {"binder": "B1", "Kd": 14},
      {"binder": "B2", "Kd": 12.4},
      {"binder": "B7", "Kd": 14},
      {"binder": "B3", "Kd": 11.5},
      {"binder": "B8", "Kd": 12.9},
      {"binder": "B9", "Kd": 13.6},
      {"binder": "B10", "Kd": 13.1},
      {"binder": "B4", "Kd": 15.2},
      {"binder": "B5", "Kd": 13.6}
    ]}
  ]
}
